Laboratory results taken from the nanobody polyreactivity screen of Harvey et al. (2022).

assay: yeast display, Sf9 membrane polyspecificity reagent, FACS + sequencing; frameworks hold sequencing errors
Summary of the method: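 Synthetic nanobody libraries on Saccharomyces cerevisiae BJ5465 were galactose-induced for 36–48 hours, stained 1 hour at 4 °C with 10% biotinylated, detergent-solubilized Sf9 membrane reagent and enriched on streptavidin microbeads. FACS then separated cells into low and high (top ~1%) gates by anti-HA (expression) and streptavidin (reagent binding) fluorescence. Genes were colony-PCR amplified, MiSeq 2 × 250 sequenced and CDR-length filtered. A clone's polyreactivity label is that of its gate of origin.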

Row | Sequence | polyreactivity (PSR sort gate)
1 | QVQLVESGGGLVQAGGSLRLSCAASGLTFYYYTMGWYRQAPGKERELVAAIDNGGGTNYADSVKGRFTISRDNAKNTVYLQMNSLKPEDTAVYYCAADRSYYIIIGYDLFAYYYWGQGTQVTVSS | low polyreactivity
2 | QVQLVESGGGLVQAGGSLRLSCAASGLTFYYYVMGWYRQAPGKERELVAAISYSGGRTYYADSVKGRFTISRDNAKNTVYFQMNSLKPEDTEVYYCAAQSRYGGKFYYWGQGTQVTVSS | high polyreactivity
3 | QVQLVESGGGLVQAGGSLRLSCAASGLTIFVYAMGWYRQAPGKERELVAAISDSGGSTYYADSVKGRFTISRDNAKNTVYLQMNSLKPEDSAVYYCAGNSSTYPSDDSYDYWGQGTQVTVSS | low polyreactivity
4 | QVQLVESGGGLVQAGGSLRLSCAASGLTINYYAMGLYRQAPGKERELVAAITWRGGSTYYADSVKGRFTISRDNAKNTVYLQMNSLKPEDTAVYYCAADPGPYGYYYWGQGTQVTVSS | low polyreactivity
5 | QVQLVESGGGLVQAGGSLRLSCAASGLTIRRYVMGWYRQAPGKERELVAAINWNGGSTYYADSVKGRFTISRDNAKNTVYLQMNSLKPEDTAVYYCAARSTYVYDYNYWGQGTQVTVSS | high polyreactivity
6 | QVQLVESGGGLVQAGGSLRLSCAASGLTISRYAMGWYRQAPGKERELVAAITSIGGSTYYADSVKGRFTISRDNAKNTVYLQMNSLKPVDTAVYYCACLRCLFPGRFDYWGQSTQVTVSS | high polyreactivity
7 | QVQLVESGGGLVQAGGSLRLSCAASGLTITYNAMGWYRQAPGKERELVAAISWSGDSTYADSVKGRFTISRDNAKNTVYLQKNSLKPEDTAVYYCAVPKYYYYVSRFNYWGQGTQVTVSS | high polyreactivity
8 | QVQLVESGGGLVQAGGSLRLSCAASGLTIWRYAMGWYIQAPGKERDLLAAISRSGIRTYYADSVKGRFTISRDTAKITVYLQMNSLKPEDTAVYYCAADSNAYITGRDYWGQVTQVTVSS | high polyreactivity
9 | QVQLVESGGGLVQAGGSLRLSCAASGLTLAPYAMGWYRQAPGKERELVAAITFSGGSTYYADSVKGRFTISRDNAKNTVYLQMNSLKPEDTAVYYCARDTWAYKNGYPYYSWGQRTQVTVSS | low polyreactivity
10 | QVQLVESGGGLVQAGGSLRLSCAASGLTLGRNAMGWYRQAPGKERELVAAISYGGGSTYYADSVKGRFTISRDNAKNTVYLQMNCLKPEDTAVYYCAADGWRTYGYYEYDYWGQGTQVTVSS | low polyreactivity
11 | QVQLVESGGGLVQAGGSLRLSCAASGLTLIRYAMGWYRQAPGKERELVAAISWSGGSTYYADSVKGRFTISRDNAKNTVYLQMNSLKPEDTAVYYCNTVYRYPDEYDYWGQGTQVTVSS | high polyreactivity
12 | QVQLVESGGGLVQAGGSLRLSCAASGLTLTGYAMGWYRQAPGKERELVAAISQDGGNTYYADSVKGRFTISRDNAKNTVYLQMNSLKREDTAVYYCAAVGRAKYYYWGQGTQVTVSS | low polyreactivity
13 | QVQLVESGGGLVQAGGSLRLSCAASGLTLTHYAMGWYRQAPGKERELVAAISSSGGRTYYADSVKGRFTISRDNAKNTVYLQMNSLKPEDTAVYYCAARVIASRGRYGYWGQGTQVTVSS | high polyreactivity
14 | QVQLVESGGGLVQAGGSLRLSCAASGLTQYKNGMGWYRQAPGKERELVAVISRSGGRTYYADSVKGRFTISRDNAKNTVYLQMNSLKPEDTAVYYCAARQYGPRYTYYYWGQGTQVTVSS | high polyreactivity
15 | QVQLVESGGGLVQAGGSLRLSCAASGLTSRPYVMGWYRQAPGKERDLVAAISQTGGRTYYADSVKGRFTISRDNAKNTVYLQMNSLKPEDTAVYDCAAKYSNGSGFDYWGQGTQVTVSS | high polyreactivity
16 | QVQLVESGGGLVQAGGSLRLSCAASGLTSVTYAMGWYRQAPGKERELVAAITSRAGSTYYADSVKGRFTISRDNAKNTVYLQMNSLKPEDTAVYYCAKDIIRKVYAGYVGRYDYWGQGTQVTVSS | low polyreactivity
